T1: C. milii NCBD (nuclear coactivator binding domain of CBP), Trp variant, first four residues truncated (C. milii)
T1 chain: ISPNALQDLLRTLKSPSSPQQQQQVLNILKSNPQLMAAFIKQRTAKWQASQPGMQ

T2: D. rerio NCBD (nuclear coactivator binding domain of CBP), Trp variant (D. rerio)
T2 chain: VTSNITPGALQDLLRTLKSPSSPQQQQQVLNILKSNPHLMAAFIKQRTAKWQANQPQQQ

T3: S. purpuratus NCOA N-CID-C (CID with N- and C-terminal flanking regions) (S. purpuratus, UniProt A0A7M7N2F3 1037-1156)
T3 construct: Gly-Ser remains at the N-terminus after thrombin cleavage; the Uniprot entry W4YZZ7 was withdrawn; annotated in NCBI as neurogenic protein mastermind; also called long version; source: expression construct ordered from Genscript; not shown: 6 His-tagged lipo domain, N-terminal, cleaved
T3 sequence: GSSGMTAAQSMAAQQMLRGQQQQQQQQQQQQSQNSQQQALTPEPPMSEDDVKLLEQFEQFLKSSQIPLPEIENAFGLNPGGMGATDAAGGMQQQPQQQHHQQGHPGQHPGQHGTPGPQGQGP

T4: H. sapiens NCOA1 N-CID-C (H_sapiens_NCOA1_N-CID-C_885-1004) (H. sapiens, UniProt Q15788 885-1004)
T4 construct: Gly-Ser remains at the N-terminus after thrombin cleavage; also called CID with flanking regions; Src1; not shown: His6, N-terminal, cleaved; lipo domain, N-terminal, cleaved
T4 sequence: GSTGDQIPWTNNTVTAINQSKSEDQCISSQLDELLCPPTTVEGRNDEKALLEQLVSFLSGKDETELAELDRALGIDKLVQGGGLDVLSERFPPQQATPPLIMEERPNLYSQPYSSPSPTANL

B1: H. sapiens NCOA1 N-CID-C (CID with N- and C-terminal flanking regions) (domain or fragment)
chain: T4 sequence
notes: Gly-Ser remains at the N-terminus after thrombin cleavage; also called NCOA1 (Src1); source: expression construct ordered from Genscript; not shown: 6 His-tagged lipo domain, N-terminal, cleaved
B2: D. rerio NCOA2 N-CID-C (CID with N- and C-terminal flanking regions) (domain or fragment)
chain: GPGSPPNQTAPWPDSVMPIEPVPFGNQSSSMYGGSQEDVLCPPASEGPADEGALLSQLYSALKDFDGLEEIDRALGIPALVGQAQPVEQDQFPGQDPSMMMDQKPPMYGQQQYASSPANMQQAG
B3: H. sapiens NCOA1 CID (H_sapiens_NCOA1_CID_924-965) (domain or fragment)
chain: GSEGRNDEKALLEQLVSFLSGKDETELAELDRALGIDKLVQGGG
notes: Gly-Ser remains at the N-terminus after thrombin cleavage; also called Src1; not shown: His6, N-terminal, cleaved; lipo domain, N-terminal, cleaved
B4: C. milii NCOA3 N-CID-C (CID with N- and C-terminal flanking regions) (domain or fragment)
chain: QTTSWSDNVLQMEQVHSGGQGRQPFGGSLDDLLCPPTTAEAQSDEKALLDQLDTLLSNADEMGLEEIDRALGIPDLISQVQPLEAHADQFSVQDTALMLEQKAMYGQQFNSQAGPMQGCY
B5: D. rerio NCOA1 N-CID-C (CID with N- and C-terminal flanking regions) (domain or fragment)
chain: GSEPMTFDNSLANQTQAPLSSPQEQCVPCPLDEMLCPPTTPEGRNDEKALLEQLVTFLSHTDESELAELDRALGIDKIVQSGCLEPVTQTPFPQSQPPTPVPLDPKLPSYPSQFPTSPSQFP
B6: S. purpuratus NCBD (nuclear coactivator binding domain of CBP), wild type (domain or fragment)
chain: GSQRNNAPQQALQQLLQTLKSPHSPQQQKQVLTILKSNPQLMAAFIKQRSEHQQRMQQQQQ
notes: Gly-Ser remains at the N-terminus after thrombin cleavage; CBP, S. purpuratus (purple sea urchin), NCBD domain, residues 2316-2374 of Uniprot A0A7M7HNR9; the Trp variant is told only for the stopped-flow experiments; source: expression construct ordered from Genscript; not shown: 6 His-tagged lipo domain, N-terminal, cleaved
B7: D. rerio NCOA3 N-CID-C (CID with N- and C-terminal flanking regions) (domain or fragment)
chain: GSPPQSPSWPDSGMGMEGPPSANRLPINSPLDELLAPPSTSEGQSDERALLDQLDSLLNNTDVIALEEIDRALGIPDLINQGHSSDQPPPSDPFSGPCLGPDSSMGMEPPKAMYGQGYPGPP
B8: H. sapiens CBP NCBD domain, Trp variant (H_sapiens_NCBD 2058-2116, Tyr2108 to Trp) (domain or fragment)
chain: GSPPRSISPSALQDLLRTLKSPSSPQQQQQVLNILKSNPQLMAAFIKQRTAKWVANQPGMQ
notes: Gly-Ser remains at the N-terminus after thrombin cleavage; Trp introduced at Tyr2108 for the kinetic studies; not shown: His6, N-terminal, cleaved; lipo domain, N-terminal, cleaved

The target in test [1] is S. purpuratus NCBD (nuclear coactivator binding domain of CBP), wild type (S. purpuratus). As to the kind of experiment: ITC; MicroCal iTC200, 25 °C, 20 mM sodium phosphate pH 7.40, 150 mM NaCl. For orientation: In ITC the heat of successive injections is recorded.
For test [2], the target named is C. milii CBP NCBD domain, Trp variant (C_milli_NCBD 2031-2089) (Callorhinchus milii). As to the kind of experiment: stopped-flow spectroscopy; Trp variant of NCBD of the same species mixed with CID or N-CID-C; kon from the slope of kobs against CID concentration; koff from displacement of the complex by an excess of wild-type NCBD (average of three experiments); Kd = koff/kon; 20 mM sodium phosphate pH 7.40, 150 mM NaCl, 4 °C; double exponential fit for human and C. milii NCOA3, the high kobs used for Kd.

Test [3] addresses H. sapiens NCBD (nuclear coactivator binding domain of CBP), Trp variant (H. sapiens, UniProt Q92793 2058-2116, a Trp was introduced at the position corresponding to Tyr2108 in human NCBD).
In test [4] the target is T5, H. sapiens NCBD (nuclear coactivator binding domain of CBP), Trp variant (H. sapiens, UniProt Q92793 2058-2116, a Trp was introduced at the position corresponding to Tyr2108 in human NCBD).
T5 construct: Gly-Ser remains at the N-terminus after thrombin cleavage; also called human NCBD; Trp variant of NCBD; source: expression construct ordered from Genscript; not shown: 6 His-tagged lipo domain, N-terminal, cleaved
As to the kind of experiment: stopped-flow spectroscopy; Trp variant of NCBD mixed with CID at varied concentration; kon from the slope of kobs, koff from displacement with excess wild-type NCBD, Kd = koff/kon; 20 mM sodium phosphate pH 7.40, 150 mM NaCl, 4 °C. The following applies: both partners purified.

The target of test [5] is T1, C. milii NCBD (nuclear coactivator …).
For test [6], the target named is T2, D. rerio NCBD (nuclear coactivator …).
Test [7] deals with D. rerio CBP NCBD domain, Trp variant (D_rerio_NCBD 2064-2122) (Danio rerio). The test is described as follows: stopped-flow spectroscopy; Trp variant of NCBD of the same species mixed with CID or N-CID-C; kon from the slope of kobs against CID concentration; koff from displacement of the complex by an excess of wild-type NCBD (average of three experiments); Kd = koff/kon; 20 mM sodium phosphate pH 7.40, 150 mM NaCl, 4 °C; double exponential fit for human and C. milii NCOA3, the high kobs used for Kd.

In test [8] the target is B8. The test is described as above. The following applies: both partners purified.
Test [9] has as its target T3, S. purpuratus NCOA N-CID-C (CID with N- …). The test is described as follows: ITC; MicroCal iTC200, 25 °C, 20 mM sodium phosphate pH 7.40, 150 mM NaCl. The following applies: both partners purified.
Test [10] has as its target T4, H. sapiens NCOA1 N-CID-C …. As to the kind of experiment: stopped-flow spectroscopy; Trp variant of NCBD of the same species mixed with CID or N-CID-C; kon from the slope of kobs against CID concentration; koff from displacement of the complex by an excess of wild-type NCBD (average of three experiments); Kd = koff/kon; 20 mM sodium phosphate pH 7.40, 150 mM NaCl, 4 °C; double exponential fit for human and C. milii NCOA3, the high kobs used for Kd. The following applies: both partners purified.

By Kd is commonly meant the equilibrium constant for the complex coming apart. Read a high Kd as lower affinity. For the molecule “S. purpuratus NCOA CID (minimal region) (domain or fragment)”, the Kd in test [1] was found to be 5000 nM.
Usually koff stands for a measure of how fast the partners let go of each other. High values mean a short-lived complex, low ones a long-lived complex. With “C. milii NCOA3 N-CID-C (C_milli_NCOA3_N-CID-C_1037-1156) (domain or fragment)”, in test [2], the Kd was 88 nM and the koff was 3.78 s⁻¹.
In test [2], “C. milii NCOA3 CID (C_milli_NCOA3_CID_1076-1117) (domain or fragment)” yielded a Kd of 260 nM and a koff of 6.53 s⁻¹.
In turn, B1 displayed a Kd in [3] of 6 nM. Moreover, the “fold increase in affinity with flanking regions against the CID without them” value in test [4] was determined as 9 fold.
Regarding EAQSDEKALLDQLDTLLSNADEMGLEEIDRALGIPDLISQVQ (domain or fragment) [C. milii NCOA3 CID (minimal region)], the Kd in test [5] was determined as 260 nM.
Turning to GSEGRNDEKALLEQLVTFLSHTDESELAELDRALGIDKIVQSGC (domain or fragment) [D. rerio NCOA1 CID (minimal region)], the Kd in test [6] came out at 44 nM. In test [7], this molecule registered a Kd of 44.1 nM and a koff of 1.54 s⁻¹.
Molecule GPGSASEGPADEGALLSQLYSALKDFDGLEEIDRALGIPALVGQAQ (domain or fragment) [D. rerio NCOA2 CID (minimal region)] came in with a Kd in test [6] of 150 nM. In test [7], this molecule had a dissociation constant (Kd) of 146 nM and a koff of 5.06 s⁻¹.
On the same counts, the results for B2 are 82 nM, 81.9 nM and 3.51 s⁻¹.
For B3, the Kd in test [3] is 56 nM; in test [8] it was 55.7 nM. In test [8], the koff was 1.59 ± 0.153 s⁻¹.
As to GSEGQSDERALLDQLDSLLNNTDVIALEEIDRALGIPDLINQGH (domain or fragment) [D. rerio NCOA3 CID (minimal region)], binding in test [6] was characterised by a dissociation constant (Kd) of 300 nM. Further, in [7], the Kd was determined as 300 nM and the koff came out at 7.29 s⁻¹.
In test [5], B4 returned a Kd of 88 nM.
In test [6], B5 displayed a Kd of 15 nM. In test [7], this molecule registered a Kd of 14.7 nM and a koff of 0.716 s⁻¹.
On to B6, for which, in [9], the Kd was 8000 nM.
B7: the Kd in [6] was determined as 170 nM; in test [7], 168 nM. The same molecule registered a koff in test [7] of 5.34 s⁻¹.
In test [10], B8 displayed a Kd of 6.02 nM and an off-rate (koff) of 0.436 ± 0.0476 s⁻¹.

The values are drawn from article PMC10515491, “Intrinsically Disordered Flanking Regions Increase the Affinity of a Transcriptional Coactivator Interaction across Vertebrates” (Biochemistry, 2023).
